According to IntAct's records for PubMed 31515488:

B1: Translocator protein (Homo sapiens), P30536 (parent)
chain: MAPPWVPAMGFTLAPSLGCFVGSRFVHGEGLRWYAGLQKPSWHPPHWVLGPVWGTLYSAMGYGSYLVWKELGGFTEKAVVPLGLYTGQLALNWAWPPIFFGARQMGWALVDLLLVSGAAAATTVAWYQVSPLAARLLYPYLAWLAFTTTLNYCVWRDNHGWRGGRRLPE
partner: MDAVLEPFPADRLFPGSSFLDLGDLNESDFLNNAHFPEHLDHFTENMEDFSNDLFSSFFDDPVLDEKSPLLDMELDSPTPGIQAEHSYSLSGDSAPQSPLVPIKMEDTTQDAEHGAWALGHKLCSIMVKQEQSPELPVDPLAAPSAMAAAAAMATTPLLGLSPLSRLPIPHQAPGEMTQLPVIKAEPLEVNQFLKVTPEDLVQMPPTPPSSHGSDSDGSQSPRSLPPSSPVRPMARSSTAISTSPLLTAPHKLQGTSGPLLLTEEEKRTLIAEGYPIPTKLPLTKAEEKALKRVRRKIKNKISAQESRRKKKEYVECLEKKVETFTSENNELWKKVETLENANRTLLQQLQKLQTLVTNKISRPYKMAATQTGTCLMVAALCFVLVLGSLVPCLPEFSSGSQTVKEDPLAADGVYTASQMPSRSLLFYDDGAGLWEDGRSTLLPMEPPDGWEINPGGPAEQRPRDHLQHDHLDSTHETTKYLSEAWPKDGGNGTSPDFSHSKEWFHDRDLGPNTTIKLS
B2: Methanethiol oxidase (Homo sapiens), Q13228 (parent)
chain: MATKCGNCGPGYSTPLEAMKGPREEIVYLPCIYRNTGTEAPDYLATVDVDPKSPQYCQVIHRLPMPNLKDELHHSGWNTCSSCFGDSTKSRTKLVLPSLISSRIYVVDVGSEPRAPKLHKVIEPKDIHAKCELAFLHTSHCLASGEVMISSLGDVKGNGKGGFVLLDGETFEVKGTWERPGGAAPLGYDFWYQPRHNVMISTEWAAPNVLRDGFNPADVEAGLYGSHLYVWDWQRHEIVQTLSLKDGLIPLEIRFLHNPDAAQGFVGCALSSTIQRFYKNEGGTWSVEKVIQVPPKKVKGWLLPEMPGLITDILLSLDDRFLYFSNWLHGDLRQYDISDPQRPRLTGQLFLGGSIVKGGPVQVLEDEELKSQPEPLVVKGKRVAGGPQMIQLSLDGKRLYITTSLYSAWDKQFYPDLIREGSVMLQVDVDTVKGGLKLNPNFLVDFGKEPLGPALAHELRYPGGDCSSDIWI
partner: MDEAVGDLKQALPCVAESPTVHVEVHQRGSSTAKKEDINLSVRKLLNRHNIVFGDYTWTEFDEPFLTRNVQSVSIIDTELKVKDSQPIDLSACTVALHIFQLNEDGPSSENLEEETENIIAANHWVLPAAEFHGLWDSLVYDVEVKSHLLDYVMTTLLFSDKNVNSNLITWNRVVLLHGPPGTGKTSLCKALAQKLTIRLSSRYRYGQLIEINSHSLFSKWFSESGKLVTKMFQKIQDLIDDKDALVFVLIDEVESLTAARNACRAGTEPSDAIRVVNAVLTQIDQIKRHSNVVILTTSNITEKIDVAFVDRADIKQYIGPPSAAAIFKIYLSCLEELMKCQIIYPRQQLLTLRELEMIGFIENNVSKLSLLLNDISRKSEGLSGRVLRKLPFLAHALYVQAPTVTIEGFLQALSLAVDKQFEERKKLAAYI
B3: Melanoma-associated antigen 4 (Homo sapiens), P43358 (parent)
chain: MSSEQKSQHCKPEEGVEAQEEALGLVGAQAPTTEEQEAAVSSSSPLVPGTLEEVPAAESAGPPQSPQGASALPTTISFTCWRQPNEGSSSQEEEGPSTSPDAESLFREALSNKVDELAHFLLRKYRAKELVTKAEMLERVIKNYKRCFPVIFGKASESLKMIFGIDVKEVDPASNTYTLVTCLGLSYDGLLGNNQIFPKTGLLIIVLGTIAMEGDSASEEEIWEELGVMGVYDGREHTVYGEPRKLLTQDWVQENYLEYRQVPGSNPARYEFLWGPRALAETSYVKVLEHVVRVNARVRIAYPSLREAALLEEEEGV
partner: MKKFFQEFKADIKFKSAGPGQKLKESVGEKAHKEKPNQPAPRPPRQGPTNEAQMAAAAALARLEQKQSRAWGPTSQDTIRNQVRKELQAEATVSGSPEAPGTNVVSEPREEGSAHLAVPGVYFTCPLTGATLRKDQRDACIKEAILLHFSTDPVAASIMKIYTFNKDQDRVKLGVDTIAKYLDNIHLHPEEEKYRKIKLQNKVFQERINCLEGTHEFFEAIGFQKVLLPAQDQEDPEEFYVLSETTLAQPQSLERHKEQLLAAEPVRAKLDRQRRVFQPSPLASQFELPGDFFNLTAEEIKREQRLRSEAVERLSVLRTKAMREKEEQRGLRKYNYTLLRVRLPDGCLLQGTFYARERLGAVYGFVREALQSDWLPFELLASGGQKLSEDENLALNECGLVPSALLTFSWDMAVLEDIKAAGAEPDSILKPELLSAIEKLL
B4: Coiled-coil domain-containing protein 172 (Homo sapiens), P0C7W6 (parent)
chain: MSLESLFQHIIFTEHQAEESRRLMREVRSEITRCREKIKKATEELNEEKIKLESKVQQFFEKSFFLQLLKAHENALEKQYSEITNHRNMLLQTFEAIKKQMIEEEDKFIKEITDFNNDYEITKKRELLMKENVKIEISDLENQANMLKSEMKSMEHDSSQLNELQKQKSELIQELFTLQRKLKVFEDEENESICTTKYLEAEKIKISEKPQNDTECLRLKKELELYKEDDMESVYEALQTEIEFLELTLAQKDLQESK

Variants of: B1
Conditions: with cr3l1_human CREB3L1, Q96BA8

| Variant | effect of a mutation on the interaction |
| --- | --- |
| A119V | disrupting interaction strength |

Variants of: B2
Conditions: with pch2_human TRIP13, Q15645

| Variant | effect of a mutation on the interaction |
| --- | --- |
| R211Q | with no effect |

Variants of: B3
Conditions: with ubxn6_human UBXN6, Q9BZV1

| Variant | effect of a mutation on the interaction |
| --- | --- |
| S41F | with no effect |

Variants of: B4
Conditions: with mesh1_human HDDC3, Q8N4P3
Sequence of mesh1_human HDDC3, Q8N4P3 (Q8N4P3 whole entry): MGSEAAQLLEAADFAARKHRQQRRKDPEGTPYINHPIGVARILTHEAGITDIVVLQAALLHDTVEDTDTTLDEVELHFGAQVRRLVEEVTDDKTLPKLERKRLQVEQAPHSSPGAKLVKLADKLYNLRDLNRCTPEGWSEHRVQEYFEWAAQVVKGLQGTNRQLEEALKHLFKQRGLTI

| Variant | effect of a mutation on the interaction |
| --- | --- |
| N145K | with no effect |
| I10V | with no effect |

Variants of: B4
Conditions: with fa13c_human FAM13C

| Variant | effect of a mutation on the interaction |
| --- | --- |
| I10V | with no effect |
| F60L | disrupting interaction strength |

Variants of: B4
Conditions: with dctn2_human DCTN2, Q13561
Sequence of dctn2_human DCTN2, Q13561 (Q13561 whole entry): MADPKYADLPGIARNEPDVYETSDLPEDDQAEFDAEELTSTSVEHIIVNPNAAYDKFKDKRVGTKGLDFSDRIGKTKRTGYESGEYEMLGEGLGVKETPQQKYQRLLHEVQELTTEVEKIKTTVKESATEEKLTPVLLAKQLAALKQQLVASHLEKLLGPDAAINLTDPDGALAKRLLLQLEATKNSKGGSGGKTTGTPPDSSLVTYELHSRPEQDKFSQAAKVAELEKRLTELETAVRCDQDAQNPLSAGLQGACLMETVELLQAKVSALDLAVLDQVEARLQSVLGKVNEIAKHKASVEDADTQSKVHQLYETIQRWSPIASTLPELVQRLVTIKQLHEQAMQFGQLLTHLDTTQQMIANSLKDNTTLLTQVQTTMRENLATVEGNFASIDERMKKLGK

| Variant | effect of a mutation on the interaction |
| --- | --- |
| I10V | with no effect |
| F60L | disrupting interaction strength |

Variants of: B4
Conditions: with smce1_human SMARCE1, Q969G3
Sequence of smce1_human SMARCE1, Q969G3 (Q969G3 whole entry): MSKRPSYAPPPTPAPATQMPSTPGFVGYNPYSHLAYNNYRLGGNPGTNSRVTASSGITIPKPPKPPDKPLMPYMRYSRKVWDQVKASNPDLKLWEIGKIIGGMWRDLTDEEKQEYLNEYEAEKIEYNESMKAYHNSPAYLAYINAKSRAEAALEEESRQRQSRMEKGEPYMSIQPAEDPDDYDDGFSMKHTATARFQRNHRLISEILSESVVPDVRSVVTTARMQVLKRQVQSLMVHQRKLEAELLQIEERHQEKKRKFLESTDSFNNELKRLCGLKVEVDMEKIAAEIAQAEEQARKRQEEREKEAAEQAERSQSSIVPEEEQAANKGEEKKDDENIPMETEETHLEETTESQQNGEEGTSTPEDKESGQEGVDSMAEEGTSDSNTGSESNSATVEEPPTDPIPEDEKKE

| Variant | effect of a mutation on the interaction |
| --- | --- |
| I10V | with no effect |
| F60L | disrupting interaction strength |
